Consider 9 sequences from paper PMC4201290.

What all share (test): fluorescence polarization
The target in series [1] is Egr1/Zif268 ZnF1-3 (Homo sapiens) (UniProt P18146). Particulars: FP: 5 nM FAM-dsDNA, 300 mM NaCl (200 mM in Fig 4E), 20 mM Tris-HCl pH 7.5, 5% glycerol, 0.5 mM TCEP, 25 C, 10 min.
Series [2] has as its system WT1 ZnF2-4 (-KTS) (Homo sapiens), P19544-4. Particulars: FP: 5 nM FAM-dsDNA, 300 mM NaCl (200 mM in Fig 4E), 20 mM Tris-HCl pH 7.5, 5% glycerol, 0.5 mM TCEP, 25 C, 10 min; for Kd: 300 mM NaCl.
The target of series [3] is WT1 ZnF2-4 +KTS isoform (Homo sapiens) (UniProt P19544). As to conditions: FP: 5 nM FAM-dsDNA, 300 mM NaCl (200 mM in Fig 4E), 20 mM Tris-HCl pH 7.5, 5% glycerol, 0.5 mM TCEP, 25 C, 10 min.
Chain of WT1 ZnF2-4 +KTS isoform (Homo sapiens) (P19544 350-440): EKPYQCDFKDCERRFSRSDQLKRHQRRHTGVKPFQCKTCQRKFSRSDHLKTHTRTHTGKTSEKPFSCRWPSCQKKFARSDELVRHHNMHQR
The mark [4] stands for this setting: 5hmC at C3 and C9 of strand 1, 5mC at C3 and C9 of strand 2.
The mark [5] stands for this setting: 5hmC at C9 of strand 1, 5mC at C3 of strand 1 and C3, C9 of strand 2.
The mark [6] stands for this setting: 5mC at C3 and C9 of strand 2 only.
[7] abbreviates: 5fC at C9 of strand 1, 5mC at C3 of strand 1 and C3, C9 of strand 2.
Setting [8] is: 5mC at C3 and C9 of both strands.

Chain of WT1 ZnF2-4 (-KTS) (Homo sapiens), P19544-4 (P19544 other isoform, or with tags, fused parts or gaps): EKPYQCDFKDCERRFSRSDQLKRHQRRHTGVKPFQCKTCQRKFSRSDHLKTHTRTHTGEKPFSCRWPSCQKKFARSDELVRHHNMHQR

Regarding AGCGTGGGCGT / TACGCCCACGC [5hmCx2], the binding signal (fold weaker than M/M) worked out at 24 in series [1] (setting [4]) and 75 in series [2] (setting [4]).

In series [2] (~25-fold weaker than M/M, also printed as KD > 2.3 uM, 5caC at C3 and C9 of strand 1, 5mC at C3 and C9 of strand 2), AGCGTGGGCGT / TACGCCCACGC [5caCx2] displayed a Kd of 2300 nM.

As to AGCGTGGGCGT / TACGCCCACGC [5hmCx1], the binding signal (fold weaker than 5mC (M/M)) in series [1] (setting [5]) amounted to 3.6; in series [2] (setting [5]) it was 4.5.

As for AGCGTGGGCGT / TACGCCCACGC [C/M], the binding signal (fold weaker than M/M) in series [1] (setting [6]) came to 2; in series [2] (setting [6]) it was 1.2. Further, the binding signal (fold weaker than -KTS isoform) in series [3] (setting [6]) was 24.

Regarding AGCGTGGGCGT / TACGCCCACGC [5fCx1], the results for the binding signal (fold weaker than 5mC (M/M)) in series [1] (setting [7]) and in series [2] (setting [7]) were 15 and 14, respectively.

As to AGCGTGGGCGT / TACGCCCACGC [C/C], the binding signal (fold weaker than M/M) in series [1] (none) was found to be 2.8; in series [2] (none) it was 1.8. This sequence also returned a binding signal (fold weaker than -KTS isoform) in series [3] (none) of 24.

As for AGCGTGGGCGT / TACGCCCACGC [5caCx1], the Kd in series [1] (5caC at C9 of strand 1, 5mC at C3 of strand 1 and C3, C9 of strand 2) is more than 12000 nM; in series [2] (2-fold stronger than 5mC, 5caC at C9 of strand 1, 5mC at C3 of strand 1 and C3, C9 of strand 2), 50 nM.

With AGCGTGGGCGT / TACGCCCACGC [5fCx2], in series [2] (5fC at C3 and C9 of strand 1, 5mC at C3 and C9 of strand 2), the binding signal (fold weaker than M/M) was 75.

Regarding AGCGTGGGCGT / TACGCCCACGC [M/M], the binding signal (fold stronger than C/C) in series [1] (setting [8]) turned out to be 2.8; in series [2] (setting [8]), 1.8. The sequence further returned a binding signal (fold weaker than -KTS isoform) in series [3] (300 mM NaCl, 25-fold also printed (Fig 4C), 5mC at C3 and C9 of both strands) of 24.
